“And” between values parts separate entries of the source, which are not always exact repeats. Equal values may be shown once.

The target of assay [1] is T1, recombinant human IL-12 (rhIL-12) (human, UniProt P29459 23-219; P29460 23-328).
T1 sequence (looked up) 1: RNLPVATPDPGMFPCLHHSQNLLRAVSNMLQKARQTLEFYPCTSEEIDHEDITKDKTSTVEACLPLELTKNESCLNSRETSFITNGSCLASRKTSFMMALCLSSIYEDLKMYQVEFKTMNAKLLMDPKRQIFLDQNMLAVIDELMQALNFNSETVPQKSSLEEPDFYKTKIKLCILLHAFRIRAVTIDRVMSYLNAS
T1 sequence (looked up) 2: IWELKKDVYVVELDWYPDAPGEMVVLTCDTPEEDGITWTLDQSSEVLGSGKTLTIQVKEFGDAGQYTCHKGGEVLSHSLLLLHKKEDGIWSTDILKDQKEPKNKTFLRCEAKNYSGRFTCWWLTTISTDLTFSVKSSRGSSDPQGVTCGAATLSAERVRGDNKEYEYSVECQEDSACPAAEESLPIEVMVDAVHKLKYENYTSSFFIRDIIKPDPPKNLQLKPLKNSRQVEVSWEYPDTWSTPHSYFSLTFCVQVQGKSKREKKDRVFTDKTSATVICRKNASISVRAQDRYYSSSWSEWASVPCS
The assay is described as follows: cell-based or functional assay.

The target in assay [2] is T1, recombinant human IL-12 (rhIL-12). In words: BIAcore, captured J695, soluble rhIL-12, mean of three experiments. As to the method:
Three independent experiments were performed, and the values shown are averages for the three experiments. From these measurements, the apparent dissociation (kd) and association (kₐ) rate constants were derived and used to calculate a Kd value for the interaction (see Table 10).
Background: Surface plasmon resonance follows binding to a sensor surface in real time, without labels.

For another assay, the target named is dog IL-12 (dog). In words: cell-based or functional assay.
Another assay addresses T2, human IL-4 (human, UniProt P05112 25-153).
T2 sequence (looked up): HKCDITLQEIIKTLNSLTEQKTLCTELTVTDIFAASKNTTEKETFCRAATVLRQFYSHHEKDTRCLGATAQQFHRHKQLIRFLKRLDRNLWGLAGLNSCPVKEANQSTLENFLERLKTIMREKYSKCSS
The assay is described as follows: competition ELISA: soluble cytokine against J695 (100 ng/ml) binding to immobilized human IL-12. As to the method: (§1) The plates were washed 4 times and incubated for 1 h at room temperature with 100 μl mouse anti-human lambda-HRP (1:500 in PBS-T/BSA, Southern Biotech. Ass. Inc., Birmingham, Ala.). The plates were washed 4 times and developed with ABTS (Kirkegaard & Perry Lab, Gaithersburg, Md.) for 20-30 minutes in the dark. The OD₄₅₀ nm was read using a microplate reader (Molecular Devices, Menlo Park, Calif.).
In general terms: In an ELISA, binding on a coated surface is turned into a signal by an enzyme label.

The next assay deals with human TNFα (human, UniProt P01375 77-233). Described as above. How it is done: as §1
For another assay, the target named is human IL-17 (human, UniProt Q16552 20-155, limits assumed). The description is as above. How it is done:
as §1

Another assay concerns the target human IL-1β (human, UniProt P01584 117-269). Described as above. How it is done: as §1
For another assay, the target named is T3, human lymphotoxin (human, UniProt P01374 35-205, limits assumed).
T3 sequence (looked up): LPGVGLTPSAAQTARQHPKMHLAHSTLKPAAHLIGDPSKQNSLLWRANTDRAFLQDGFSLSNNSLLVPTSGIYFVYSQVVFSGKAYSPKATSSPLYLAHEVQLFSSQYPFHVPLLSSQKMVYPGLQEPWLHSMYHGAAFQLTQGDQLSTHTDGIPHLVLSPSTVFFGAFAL
The assay is described as above. As to the method: as §1

The next assay deals with human IL-8 (human, UniProt P10145 28-99, limits assumed). The description is as above. As to the method: as §1
Assay [3] concerns the target T4, human soluble IL-6 receptor (human, UniProt P08887 20-358).
T4 construct: Soluble form
T4 sequence (looked up): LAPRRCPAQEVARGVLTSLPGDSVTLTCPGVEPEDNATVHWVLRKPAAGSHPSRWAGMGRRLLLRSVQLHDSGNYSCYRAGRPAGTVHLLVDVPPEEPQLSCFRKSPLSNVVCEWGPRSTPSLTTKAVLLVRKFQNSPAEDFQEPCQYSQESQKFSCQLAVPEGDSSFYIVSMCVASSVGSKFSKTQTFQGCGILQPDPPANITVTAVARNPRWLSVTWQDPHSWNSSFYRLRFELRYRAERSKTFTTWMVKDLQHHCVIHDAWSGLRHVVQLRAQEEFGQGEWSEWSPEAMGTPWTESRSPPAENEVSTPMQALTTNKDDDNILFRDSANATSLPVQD
The assay is described as above. How it is done:
as §1

The next assay addresses human IL-6 (human, UniProt P05231 30-212). Described as above. As to the method: as §1
The target in the next assay is human IL-2 (human, UniProt P60568 21-153). The assay is described as above. As to the method: as §1
A further assay concerns the target T5, human M-CSF (human, UniProt P09603 33-190, limits assumed).
T5 sequence (looked up): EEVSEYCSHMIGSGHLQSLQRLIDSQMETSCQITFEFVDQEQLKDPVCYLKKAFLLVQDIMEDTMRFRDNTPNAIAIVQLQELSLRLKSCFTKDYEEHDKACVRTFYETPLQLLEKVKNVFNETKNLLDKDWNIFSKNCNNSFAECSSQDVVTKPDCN
The description is as above. As to the method: as §1

For a further assay, the target named is human TGF-β1 (human, UniProt P01137 279-390). Described as above. As to the method: as §1
In a further assay the target is human IL-10 (human, UniProt P22301 19-178). The description is as above. How it is done:
as §1

B1: J695 (antibody, human IgG1, V domains shown)
VH: QVQLVESGGGVVQPGRSLRLSCAASGFTFSSYGMHWVRQAPGKGLEWVAFIRYDGSNKYYADSVKGRFTISRDNSKNTLYLQMNSLRAEDTAVYYCKTHGSHDNWGQGTMVTVSS
VL: QSVLTQPPSVSGAPGQRVTISCSGSRSNIGSNTVKWYQQLPGTAPKLLIYYNDQRPSGVPDRFSGSKSGTSASLAITGLQAEDEADYYCQSYDRYTHPALLFGTGTKVTVLG
notes: human IgG1 with lambda light chain
What is called Kd is the constant that tells how readily two partners part at equilibrium. On to B1, for which, in [1], the “PHA blast IC50” value came to 5.8 pM. The Kd in assay [2] was 0.0974 nM and 0.014 µg/mL.

B2: J695 (antibody, V domains shown)
VH: B1 VH
VL: B1 VL
notes: Human IgG1 with lambda light chain (detected with anti-human lambda); Made in CHO or COS cells
B2: the “activity on dog IL-12 in the neutralization bioassay, against human IL-12” value with dog IL-12 was around 35 fold. Further, the binding result with human IL-4, with human TNFα, with human IL-17, in the assay with human IL-1β, in the assay with human lymphotoxin and with human IL-8 was “no binding (tested: 2 nM)” in each case. For the same molecule, the binding result (in assay [3]; with human IL-6; in the assay with human IL-2; with human M-CSF; with human TGF-β1; with human IL-10) was “no binding (tested: 2 nM)” each time.
